From publication PMC2121028

Target: SNF1/GAL4(1-147)
Assay: two-hybrid
Details: scale: units

Chain of SNF1/GAL4(1-147) (P06782 whole entry, the tested form may be a part): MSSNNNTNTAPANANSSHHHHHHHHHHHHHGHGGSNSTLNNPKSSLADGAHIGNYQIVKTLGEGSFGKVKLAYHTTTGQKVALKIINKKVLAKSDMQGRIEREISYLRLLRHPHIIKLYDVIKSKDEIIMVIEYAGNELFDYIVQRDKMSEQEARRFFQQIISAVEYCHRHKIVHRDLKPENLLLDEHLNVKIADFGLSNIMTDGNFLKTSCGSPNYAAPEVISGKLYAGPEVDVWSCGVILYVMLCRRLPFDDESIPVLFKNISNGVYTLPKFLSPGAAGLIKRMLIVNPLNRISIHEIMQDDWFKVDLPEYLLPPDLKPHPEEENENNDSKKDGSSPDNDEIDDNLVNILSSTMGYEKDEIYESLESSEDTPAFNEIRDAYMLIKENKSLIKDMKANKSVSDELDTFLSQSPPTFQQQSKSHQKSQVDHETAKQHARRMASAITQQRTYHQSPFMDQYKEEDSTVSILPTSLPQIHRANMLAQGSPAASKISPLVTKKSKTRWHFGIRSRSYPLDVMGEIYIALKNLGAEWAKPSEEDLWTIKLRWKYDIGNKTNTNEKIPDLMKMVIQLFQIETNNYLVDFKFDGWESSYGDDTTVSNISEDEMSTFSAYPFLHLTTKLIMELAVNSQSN
Chain of SNF4/GAL4(768-881) (natural protein) (P12904 whole entry, the tested form may be a part): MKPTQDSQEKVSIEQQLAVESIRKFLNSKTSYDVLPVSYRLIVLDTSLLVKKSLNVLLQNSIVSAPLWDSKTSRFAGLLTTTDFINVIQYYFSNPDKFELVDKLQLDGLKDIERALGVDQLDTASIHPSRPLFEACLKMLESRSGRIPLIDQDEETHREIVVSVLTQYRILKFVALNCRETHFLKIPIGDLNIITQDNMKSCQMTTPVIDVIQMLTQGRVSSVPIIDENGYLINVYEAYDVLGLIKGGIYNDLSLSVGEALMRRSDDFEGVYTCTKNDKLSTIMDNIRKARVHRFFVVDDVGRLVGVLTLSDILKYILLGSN

beta-galactosidase activity: 500
Substance: SNF4/GAL4(768-881) (natural protein)
